# Measured values taken from patent publication US20100061996.
# Target: pro-uPA (pro-urokinase-type plasminogen activator, single-chain zymogen form of uPA), P00749
Protein,k (first-order rate constant of pro-uPA activation) [min⁻¹],kcat/Km of pro-uPA activation [M⁻¹ s⁻¹],"cleavage of pro-uPA (SDS-PAGE, 1.5 uM pro-uPA, 15 nM plasmin)"
matriptase protease domain (protein) VVGGTDADEGEWPWQVSLHALGQGHICGASLISPNWLVSAAHCYIDDRGFRYSDPTQWTAFLGLHDQSQRSAPGVQERRLKRIISHPFFNDFTFDYDIALLELEKPAEYSSMVRPICLPDASHVFPAGKAIWVTGWGHTQYGGTGALILQKGEIRVINQTTCENLLPQQITPRMMCVGFLSGGVDSCQGDSGGPLSSVEADGRIFQAGVVSWGDGCAQRNKPGVYTRLPLFRDWIKENTGV,0.0142,79000,–
Lys-plasmin (protein) KVYLSECKTGNGKNYRGTMSKTKNGITCQKWSSTSPHRPRFSPATHPSEGLEENYCRNPDNDPQGPWCYTTDPEKRYDYCDILECEEECMHCSGENYDGKISKTMSGLECQAWDSQSPHAHGYIPSKFPNKNLKKNYCRNPDRELRPWCFTTDPNKRWELCDIPRCTTPPPSSGPTYQCLKGTGENYRGNVAVTVSGHTCQHWSAQTPHTHNRTPENFPCKNLDENYCRNPDGKRAPWCHTTNSQVRWEYCKIPSCDSSPVSTEQLAPTAPPELTPVVQDCYHGDGQSYRGTSSTTTTGKKCQSWSSMTPHRHQKTPENYPNAGLTMNYCRNPDADKGPWCFTTDPSVRWEYCNLKKCSGTEASVVAPPPVVLLPDVETPSEEDCMFGNGKGYRGKRATTVTGTPCQDWAAQEPHRHSIFTPETNPRAGLEKNYCRNPDGDVGGPWCYTTNPRKLYDYCDVPQCAAPSFDCGKPQVEPKKCPGRVVGGCVAHPHSWPWQVSLRTRFGMHFCGGTLISPEWVLTAAHCLEKSPRPSSYKVILGAHQEVNLEPHVQEIEVSRLFLEPTRKDIALLKLSSPAVITDKVIPACLPSPNYVVADRTECFITGWGETQGTFGAGLLKEAQLPVIENKVCNRYEFLNGRVQSTELCAGHLAGGTDSCQGDSGGPLVCFEKDKYILQGVTSWGLGCARPNKPGVYVRVSRFVTWIEGVMRNN,0.0815,453000,cleavage of pro-uPA by plasmin generated identical fragments and with a time-course similar to hepsin
